Assay results reported in the DeepSol protein solubility set.

Assay: soluble on expression in E. coli; label from the status in PepcDB or PDB records

Row | Sequence | soluble on expression in E. coli
1 | FMDELVSLTYRSRVRLADPVADIVQIMRASRVRNLRLGITGILLYNGVHFVQTIEGPRSACDELFRLISADPRHQEILAFDLEPITARRFPDWSMRIVSRKELRALAPDLERLDLSGPEDVAELHRTIAASLSRGDA | soluble
2 | MSDVKSVIESGRAVLGIEFGSTRIKAVLIGEDHAPIATGAHDWENMLVDGIWTYSLDMIWEGISDCYSKMAQDAKEKYGVTIKKLAAIGISGMMHGYLPFDEEDNLLVPFRTWRNTITGEAAAELTEVLGFNIPQRWSIAHLYQAILNKEEHVSKISYFTTLAGYIHWQLTGEKVMGVGEASGMFPIDSKTRDYDAAMLDKFAALDKVKEYPWDIRDILPKVLTAGEKAGTLTEEGAKRLDVSGNLESGILLAPPEGDAGTGMVATNSVAVRTGNVSAGTSVFAMVVLEKALKAVHEELDMVTTPSGDAVAMVHCNNCTSDLNAWVGLFKEFSELFGMDIDMNDIYGKLYNNALTADKDCGGLVAFNLFSGEPVIGLNEGRPMFARKPDARMNLANFMRTHLYASLATLKIGCDILFKEEKVKVDTLYGHGGLFKTKGVGQSILAAAMDAPVAVMETAGEGGPWGMAVLAAYMVNKADGEPLEKYLSDRVFNGEKGIVMQPDPDDVKGFDEYINTYKAAIEAERAMVKALPLLEHHHHHH | soluble
3 | MRDPNKWAEVKKTLPLVGAGRSGGRFRHPSARGKLTVQYVNRVRHYYDLLVRLSEKKRSGPSGRGLEHHHHHH | not soluble
4 | MVEVVSVREHDRWRGVYVVELEDGSLRIATKNLVPGQRVYGERIFRYNGEEYREWNAYRSKLAAALLKGLIELPVKEGDRILYLGIASGTTASHMSDIIGPRGRIYGVEFAPRVMRDLLTVVRDRRNIFPILGDARFPEKYRHLVEGVDGLYADVAQPEQAAIVVRNARFFLRDGGYMLMAIKARSIDVTTEPSEVYKREIKTLMDGGLEIKDVVHLDPFDRDHAMIYAVMRR | soluble
5 | GSHMARGKLKAPKWPILKNLELLQAQNYSRNIKTFPYKELNKSMYYDKWVCMCRCEDGALHFTQLKDSKTITTITTPNPRTGGEHPAIISRGPCNRLLLLYPGNQITILDSKTNKVLREIEVDSANEIIYMYGHNEVNTEYFIWADNRGTIGFQSYEDDSQYIVHSAKSDVEYSSGVLHKDSLLLALYSPDGILDVYNLSSPDQASSRFPVDEEAKIKEVKFADNGYWMVVECDQTVVCFDLRKDVGTLAYPTYTIPEFKTGTVTYDIDDSGKNMIAYSNESNSLTIYKFDKKTKNWTKDEESALCLQSDTADFTDMDVVCGDGGIAAILKTNDSFNIVALTP | soluble
6 | MPIVYYDGNCIYCYNYVIWLIQHDLPRNYQFATLKGEVGQQFFKQHPEAANKNSVILQKGDRIYFESQAIIKLITALPNRTKLLGVGLWLVPKPVRNFGYRMFANNRNRMWKTTWHQPNDYEKSFFLDDNAKVKLTD | not soluble
7 | MPLLDSFTVDHTRMNAPAVRVAKTMQTPKGDTITVFDLRFTMPNKDILSERGIHTLEHLYAGFMRNHLNGSQVEIIDISPMGCRTGFYMSLIGAPTEQQVAQAWLAAMQDVLKVESQEQIPELNEYQCGTAAMHSLEEAKAIAKNVIAAGISVNRNDELALPESMLNELKVH | not soluble
8 | MGSDKIHHHHHHMQPTIDQKKNPAIGNQRVTKRRKTIAQGLIQEGIELEIIQSWLFAIAQMWEVGHIPPILRGISHKSQVEALFRISQIGETIQKVHEKLAGEYYQDWVKSLNRAGLHTPSEIISAITEIQQVVKPEAIDTTKQLLNKLELEIIGMKDGDFFPTPKPLCQRLVQLADIKPNWQILEPSAGSGNIAEYITNTYPNVQLEVVEINYDLRQILELKGFNLVGKNFLEFNPSHLYNACIMNPPFCELVQHIYQAWKLLITGGVLVSVIPESVFFNRKYKTFKNWLLANNSYVEMVDKDAFLSSNNPTNVATRIIKLIKP | not soluble
9 | MKAKLVSLLAQANIKISDQQIQQLINLVNLLNKWNKAYNLTSVRDPQEMLVKHILDSLVVSPYLQGDRFIDVGTGPGLPGLPLAIINPSKQFVLLDSLGKRISFIRNAIRELRLTNVTPVLSRVEEYQPEDKFDGVLSRAFASLKDMTDWCHHLPKENGYFYALKGIYQEDEINELNKKYTIQKVIELSVPELIGERHLIVLRLEHHHHHH | not soluble
10 | MGSDKIHHHHHHMNSKNPRTTIPAPLQSILSAIPLFAPLPPDDINTLSKLIEIQVFPKNRTILHEADTANYMYLVLAGKVRVVQHSNDGTEQVLAIHRKGAFFGEMALLDGRTSPATLIAHEDATVGLIARTAFENQILTNDRMLRQIISVLCSRLRESWFLMKLSRFSSAEQKVRGVLKYLGTQYGVDDSRGKILSIKLTHRTVAGYASVSRETASRILGRFSRAGEIELLASRRMLLKPTLFLNPPFL | not soluble
11 | MGSDKIHHHHHHAAPAPQAPALPANLTTRTWVLTDLAPGGKLRRVTGERPTLTWTVQPGGLQLSGSTGCNTYRGPATVTGQQLKVSALATTRRGCAPTQAQQENDFLTLLRGASHYRLSGQTLTVYAASTARLVFTAAPGGSMTTPSNTPAGANTPTGTTLKAAQLAGDWQLTDLREGGQAVTLPADAPFTFTASGTNTLRLSGMAGCNRLMGEVTLSGAGLTFGPLAATRMACEDMTAEQALSRVLQGSGQVTLKGDTLTWHRSGGEVVLTRRAPAATTADLSGSYRLLSVNGTAADARRTVSLTFKAGQVGGFDGCNSFGGEYSLDKAGHLTAGNLVTTLRACPDQLDQPILTALLGQAPTVQLRGRTLTLDAGGERWVFERE | not soluble
12 | MGSDKIHHHHHHMKTVMLMLTSLLMAGCSVLGKREAAEPPYELLKHDGAFEVRRYGPMVIAETILDEKSYSAASGKGFNRLAGYIFGKNRSKTSISMTAPVLQERSSEKISMTAPVLQQPQKGGWSMAFVLPEGFTLQSAPEPLDPEVKLRELPPSTIAVVTFSGLHSAANLEKYSRQLQAWLKKQGYRALSEPKLASYDPPWTIPFLRRNEVQIRIEPDHGESGKE | not soluble
13 | MGSDKIHHHHHHMYNPVGVAAIGLGRWAYVMADAYTKSEKLKLVTCYSRTEDKREKFGKRYNCAGDATMEALLAREDVEMVIITVPNDKHAEVIEQCARSGKHIYVEKPISVSLDHAQRIDQVIKETGVKFLCGHSSRRLGALRKMKEMIDTKEIGEVSSIEAVFSNERGLELKKGNWRGEPATAPGGPLTQLGVHQIDNLQFLLGPVARVFNFGKPMYTEVENITVNQTLLEFEDGKQAYLGTNWACPGVFSINVYGTKANLFYQLDFSWWSNSDVTDEHSTLIKREFASMSDDPDNRILRDVKVDFESVDHLRVEVEEVADVIRNGGETEIGAEASLRNLAVVLAAVKSVHEKRPVEIAEIIG | not soluble
14 | RADTLIYMTVNPKTNTTDMVSIPRDTYTKIIGKGTMDKINHSYAFGGTQMTVDTVENFLDVPVDYFVKVNMESFRDVVDTLGGITVNSTFAFSYDGYSFGKGEITLNGKEALAYTRMRKEDPRGDFGRQDRQRQVIQGIINKGAN | not soluble
15 | NGGIPHDNLVLIRMKPDENGRFGFNVKGGYDQKMPVIVSRVAPGTPADLCVPRLNEGDQVVLINGRDIAEHTHDQVVLFIKASCERHSGELMLLVRPNAVYDVVEE | soluble
16 | GQTTIQVRVPYRVVGLVVGPKGATIKRIQQRTHTYIVTPGRDKEPVFAVTGMPENVDRAREEIEAHITLR | soluble
17 | MKILALDTSALVAAVAVMEDDRLLAEYMLNHRKTHSQQLVAMIREVLASLELAPKDIDVFAASTGPGSFTGLRIGVTTVKAMAYATGKPVVSVPTLDAIAYNIPMNSFTICPVMDARNNQVYTALYDWDENGQKRITDYMGIPVSELVQLIKDMGKKVIFAGDAAKMHEEYFTQELGDDCKIAPGNLLLQRASSVARLAYLKAMNNELESCFDMVPFYLRKSQAEREYEKKLCKDC | not soluble
18 | MMDITTLDQFKDEIYGVKGTPRRDNLERELETLRIGVQIRNARQKKEMTQAQLAERINKKRTFISKVENDGGNLTLKTLIDIVERGLGGKLNIEVKI | not soluble
19 | MREVISIHIGQAGVQIGNACWELYCLEHGIQPDGQMPSDKSLGGSDDSFSTFFSETGSGRHVPRAVMVDLEPTVIDEIRTGTYRSLFHPEQLITGKEDAANNYARGHYTIGKEIIDLTLDRIRRLADNCTGLQGFLVFHSFGGGTGSGFTSLLMERLSVDYGKKAKLEFSIYPAPQVSTAVVEPYNSILTTHTTLEHSDCSFMVDNEAIYDICRRNLDIERPSYTNLNRLIGQIVSSITASLRFDGALNVDLTEFQTNLVPYPRIHFPLATFSPVISAEKAYHEQLSVAEITNMCFEPHNQMVKCDPRHGKYMAVCLLFRGDVVPKDVNAAIATIKTKRSIQFVDWCPTGFKVGINYQPPTVVPGGDLAKVPRAVCMLSNTTAIAEAWARLDHKFDLMYAKRAFVHWYVGEGMEEGEFSEAREDLAALEKDYEEVGVDSMEDNGEEGDEY | not soluble
20 | MREIVTIQVGEFANFVGSHFWNFQDELLGLASDPESDPIFRNHNLDMDVLYRSGETQQGVATYTPRLVSVNLKGALGTMSSRGTLYNEGSSSRSDSSATWFGDVDTQRSEPRKRNLFLQSLYEEEHVVGKEKAKEIEDKDIVGCLDEEVECWTDFSKSHYHPQSLYELNGLWMDSQAFNNYGIGKDVFSEASRGEEICDRLRFFVEECDHIQGIKFLVDDSGGFSAVAADFLENMADEYTNVPVLLYSVRTPMSQMSSKKTVSNKLHDAISFSRLSSFCKLFTPIGLPSLTGSKASKFLNLGDEKPYRSSAVYAAALHSSTIPFRMQPTSSDSSEVSNSMDVNTLVQLLTGRGRQNIVAILDSAMPAPTLAGKQLENTLLTSLQALTPEVTEDVEDNQAVESMCILGALRSEDKEALVSEVKNAVDASYEQATTKGKPLFCNLSVSRCPLPVPLPFPSIFGNLVGRKGEILSSPVSDSLYRGSLDVHSIPVATRWRSSSAILPFLETRMGNLEKLGIQWGAMGSDVVRAWGFGREELQEMRENLSKMVSELNPQFFESSDSD | soluble
21 | MIDKSAFIHPTAIVEDGAVIGANAHIGPFCIVGPQVEIGEGTVLKSHVVVNGQTKIGRDNEIYQFASIGEVNQDLKYAGEPTRVEIGDRNRIRESVTIHRGTVQGGGLTKVGSDNLLMINAHVAHDCTVGNRCILANNATLAGHVSVDDFAIIGGMTAVHQFCIIGAHVMVGGCSGVAQDVPPYVIAQGNHATPFGVNIEGLKRRGFSREGLVAIRNAYKLLYRSGKTLDEAKLEIAELAEKHPEVKAFTEFFERSTRGPIR | not soluble
22 | MADETTMRAGRGPGRACGRVSGVRILVVEDEPKMTALLARALTEEGHTVDTVADGRHAVAAVDGGDYDAVVLDVMLPGIDGFEVCARLRRQRVWTPVLMLTARGAVTDRIAGLDGGADDYLTKPFNLDELFARLRALSRRGPIPRPPTLEAGDLRLDPSEHRVWRADTEIRLSHKEFTLLEALIRRPGIVHTRAQLLERCWDAAYEARSNIVDVYIRYLRDKIDRPFGVTSLETIRGAGYRLRKDGGRHALPR | not soluble
23 | MLPSHRSPDSATHDRIRKMTMNAMPQTAAQNETLHTCSIIVDDAQDFSPMLLDAGRDDTLISESMIPQIRTVAALIAAERHDFSRSSPAEFTDAADFFAARILVLGVRRFHLDVSLLQILKTANSRARRFAEKHRLFFTPAQAELSLNKHKNRRLLTVETEHEVENKGNPVANSLAFVRKLHTLPL | not soluble
24 | PISSEQKQLISQLTDLGYSFDGLQTGYPGGEPDWHYVKELSGIEEKDLIKSFSKKGKPLVKKAKTFGIKLKKLKRDELSIFKEITSATSDRREYSDKSLDYYQDFYDAFGDNADFMVATLNFQDYFDHLESNQAKLRARIVKLQADLETNPTSEKKQNQLRELSSQLETFDVRKGEATAFIDKYGQEDIVLAGSLFVYTPQEAVYLFSGSYPEFNKFYAPALLQEYVMTQAIKRGIGFYNFLGIMGIFDGSDGVLRFKQNFNGYIVRKMGTFRYYPQPLKYKAIQGVKKLLGRN | not soluble
